Target: Recombinant Human VEGF-A165 (human)
Assay: ELISA; VEGF 165 (0.5 ug) on 96-well plates; serial dilutions (0.05 to 10 uM) of Flag-tagged HSPB1 wild type or C-terminal HSPB1 in PBS plus 1% BSA, 37°C, 2 hours; detected with anti-flag monoclonal antibody; Kd by Scatchard analysis

Substance	Kd
C-terminal HSPB1 fragment, secretory HSPB1 (59-203) (from UniProt P04792 59-203) (domain or fragment)	0.78 µM
Flag-tagged secretory wild-type HSPB1 (from UniProt P04792 1-205) (natural protein)	10.8 µM

From PMC3896397
